Assay results as given in patent US20250019439A1 (Adimab, published 2025).

Key:
ADI-67450 = molecular target: T1, ADI-67450; assay: SPR Carterra, yeast anti-ID
T1 construct: anti-CD3 antibody made in CHO cells, captured by anti-human Fc
Procedure, shortened: (§1)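 Surface plasmon resonance on a Carterra LSA at 25° C, HBSTE buffer. The anti-CD3 antibody is Fc-captured (100 nM, 5 min) and the anti-idiotype antibody serves as analyte; dissociation lasts 300s and the surface is regenerated with 10 mM glycine pH 1.7.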

ADI-76361 = molecular target: T2, ADI-76361; assay: SPR Carterra, yeast anti-ID
T2 construct: anti-CD3 antibody made in CHO cells, captured by anti-human Fc
T2 sequence (VH, as listed by the source, chain 1 of 2): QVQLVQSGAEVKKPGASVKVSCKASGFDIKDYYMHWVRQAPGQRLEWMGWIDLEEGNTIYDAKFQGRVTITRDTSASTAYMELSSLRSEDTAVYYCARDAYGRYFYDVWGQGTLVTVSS
T2 sequence (VL, as listed by the source, chain 2 of 2): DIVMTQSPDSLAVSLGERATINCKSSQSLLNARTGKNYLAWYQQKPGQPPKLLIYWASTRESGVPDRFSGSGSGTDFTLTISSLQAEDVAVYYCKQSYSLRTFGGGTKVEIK
Procedure, shortened: as §1

CTL-62227 = molecular target: T3, CTL-62227; assay: SPR Carterra, yeast anti-ID
T3 construct: also called odronextamab
T3 sequence (VH, as listed by the source, chain 1 of 2): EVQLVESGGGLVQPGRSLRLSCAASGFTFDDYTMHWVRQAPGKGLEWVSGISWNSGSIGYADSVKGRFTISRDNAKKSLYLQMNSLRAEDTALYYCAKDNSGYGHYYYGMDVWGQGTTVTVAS
T3 sequence (VL, as listed by the source, chain 2 of 2): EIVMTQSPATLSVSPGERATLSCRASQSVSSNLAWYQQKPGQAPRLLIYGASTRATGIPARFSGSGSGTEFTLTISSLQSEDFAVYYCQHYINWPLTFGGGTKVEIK
Procedure, shortened: as §1

CTL-62223 = molecular target: T4, CTL-62223; assay: SPR Carterra, yeast anti-ID
T4 construct: also called mosunetuzumab
Procedure, shortened: as §1

CTL-62228 = molecular target: T5, CTL-62228; assay: SPR Carterra, yeast anti-ID
T5 construct: also called glofitamab
Procedure, shortened: as §1

ADI-76360 = molecular target: T6, ADI-76360; assay: SPR Carterra, yeast anti-ID
T6 construct: anti-CD3 antibody made in CHO cells, captured by anti-human Fc
Procedure, shortened: as §1

ADI-26912 = molecular target: T7, ADI-26912; assay: SPR Carterra, yeast anti-ID
T7 construct: anti-CD3 antibody made in CHO cells, captured by anti-human Fc
T7 sequence (VH, as listed by the source, chain 1 of 2): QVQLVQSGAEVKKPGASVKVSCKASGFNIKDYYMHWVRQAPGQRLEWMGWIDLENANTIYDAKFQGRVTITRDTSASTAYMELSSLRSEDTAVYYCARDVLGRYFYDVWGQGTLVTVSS
T7 sequence (VL, as listed by the source, chain 2 of 2): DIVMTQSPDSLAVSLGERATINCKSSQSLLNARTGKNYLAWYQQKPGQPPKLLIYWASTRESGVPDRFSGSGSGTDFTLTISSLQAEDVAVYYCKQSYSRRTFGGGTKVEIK
Procedure, shortened: as §1

ADI-26909 = molecular target: T8, ADI-26909; assay: SPR Carterra, yeast anti-ID
T8 construct: anti-CD3 antibody made in CHO cells, captured by anti-human Fc
Procedure, shortened: as §1

ADI-74967 = molecular target: T9, ADI-74967; assay: SPR Carterra, yeast anti-ID
T9 construct: pH-dependent anti-CD3 antibody made in CHO cells
Procedure, shortened: as §1

ADI-74968 = molecular target: T10, ADI-74968; assay: SPR Carterra, yeast anti-ID
T10 construct: pH-dependent anti-CD3 antibody made in CHO cells
Procedure, shortened: as §1

ADI-26921 IgG = molecular target: T11, ADI-26921 IgG; assay: SPR Carterra, yeast anti-ID
T11 construct: anti-CD3 IgG
T11 sequence (VH, as listed by the source limits assumed, chain 1 of 2): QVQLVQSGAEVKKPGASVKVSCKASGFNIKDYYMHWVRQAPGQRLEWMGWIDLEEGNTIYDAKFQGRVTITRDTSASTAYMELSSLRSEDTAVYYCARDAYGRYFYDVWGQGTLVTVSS
Procedure, shortened: as §1

CTL-62240 = molecular target: T12, CTL-62240; assay: SPR Carterra, yeast anti-ID
T12 construct: also called ONO-4685
T12 sequence (VH, as listed by the source, chain 1 of 2): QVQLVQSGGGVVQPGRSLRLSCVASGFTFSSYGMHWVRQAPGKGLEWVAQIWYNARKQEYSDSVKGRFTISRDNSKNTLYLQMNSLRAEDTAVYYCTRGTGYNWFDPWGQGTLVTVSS
T12 sequence (VL, as listed by the source, chain 2 of 2): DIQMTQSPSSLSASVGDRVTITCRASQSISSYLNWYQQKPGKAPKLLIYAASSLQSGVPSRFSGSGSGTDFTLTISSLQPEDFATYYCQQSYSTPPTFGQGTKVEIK
Procedure, shortened: as §1

ADI-67445 = molecular target: T13, ADI-67445; assay: SPR Carterra, yeast anti-ID
T13 construct: anti-CD3 antibody made in CHO cells, captured by anti-human Fc
Procedure, shortened: as §1

ADI-70327 = molecular target: T14, ADI-70327; assay: SPR Carterra, yeast anti-ID
T14 construct: anti-CD3 antibody made in CHO cells, captured by anti-human Fc
T14 sequence (VH, as listed by the source limits assumed, chain 1 of 2): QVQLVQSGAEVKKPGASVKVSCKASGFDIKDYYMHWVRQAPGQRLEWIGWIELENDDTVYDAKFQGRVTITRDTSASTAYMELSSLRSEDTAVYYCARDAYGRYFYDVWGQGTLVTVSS
T14 sequence (VL, as listed by the source limits assumed, chain 2 of 2): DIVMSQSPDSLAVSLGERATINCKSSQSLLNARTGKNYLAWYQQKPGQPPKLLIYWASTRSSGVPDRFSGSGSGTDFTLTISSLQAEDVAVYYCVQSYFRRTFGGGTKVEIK
Procedure, shortened: as §1

ADI-70330 = molecular target: T15, ADI-70330; assay: SPR Carterra, yeast anti-ID
T15 construct: anti-CD3 antibody made in CHO cells, captured by anti-human Fc
T15 sequence (VH, as listed by the source limits assumed, chain 1 of 2): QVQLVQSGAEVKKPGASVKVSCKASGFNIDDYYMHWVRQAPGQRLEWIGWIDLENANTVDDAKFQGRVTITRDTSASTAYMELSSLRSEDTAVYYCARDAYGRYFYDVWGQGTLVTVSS
Procedure, shortened: as §1

ADI-26915 = molecular target: T16, ADI-26915; assay: SPR Carterra, yeast anti-ID
T16 construct: anti-CD3 antibody made in CHO cells, captured by anti-human Fc
Procedure, shortened: as §1

ADI-76362 = molecular target: T17, ADI-76362; assay: SPR Carterra, yeast anti-ID
T17 construct: anti-CD3 antibody made in CHO cells, captured by anti-human Fc
T17 sequence (VH, as listed by the source, chain 1 of 2): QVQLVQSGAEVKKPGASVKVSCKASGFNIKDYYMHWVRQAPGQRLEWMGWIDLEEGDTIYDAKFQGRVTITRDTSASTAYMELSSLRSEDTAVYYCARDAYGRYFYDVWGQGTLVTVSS
Procedure, shortened: as §1

ADI-50024 = molecular target: T18, ADI-50024; assay: SPR Carterra, yeast anti-ID
T18 construct: anti-CD3 antibody made in CHO cells, captured by anti-human Fc
T18 sequence (VH, as listed by the source limits assumed, chain 1 of 2): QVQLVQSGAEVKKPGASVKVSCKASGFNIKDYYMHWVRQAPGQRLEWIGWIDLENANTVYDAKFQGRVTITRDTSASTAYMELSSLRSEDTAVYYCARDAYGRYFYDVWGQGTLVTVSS
Procedure, shortened: as §1

ADI-48650 = molecular target: T19, ADI-48650; assay: SPR Carterra, yeast anti-ID
T19 construct: pH-dependent anti-CD3 antibody made in CHO cells
Procedure, shortened: as §1

ADI-48576 = molecular target: T20, ADI-48576; assay: SPR Carterra, yeast anti-ID
T20 construct: pH-dependent anti-CD3 antibody made in CHO cells
Procedure, shortened: as §1

ADI-67447 = molecular target: T21, ADI-67447; assay: SPR Carterra, yeast anti-ID
T21 construct: anti-CD3 antibody made in CHO cells, captured by anti-human Fc
T21 sequence (VH, as listed by the source limits assumed, chain 1 of 2): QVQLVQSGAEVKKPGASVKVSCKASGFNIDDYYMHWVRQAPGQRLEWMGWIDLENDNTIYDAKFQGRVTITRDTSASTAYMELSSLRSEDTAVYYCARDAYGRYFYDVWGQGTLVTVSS
Procedure, shortened: as §1

ADI-48587 = molecular target: T22, ADI-48587; assay: SPR Carterra, yeast anti-ID
T22 construct: pH-dependent anti-CD3 antibody made in CHO cells
Procedure, shortened: as §1

ADI-74965 = molecular target: T23, ADI-74965; assay: SPR Carterra, yeast anti-ID
T23 construct: pH-dependent anti-CD3 antibody made in CHO cells
Procedure, shortened: as §1

ADI-70326 = molecular target: T24, ADI-70326; assay: SPR Carterra, yeast anti-ID
T24 construct: anti-CD3 antibody made in CHO cells, captured by anti-human Fc
T24 sequence (VH, as listed by the source limits assumed, chain 1 of 2): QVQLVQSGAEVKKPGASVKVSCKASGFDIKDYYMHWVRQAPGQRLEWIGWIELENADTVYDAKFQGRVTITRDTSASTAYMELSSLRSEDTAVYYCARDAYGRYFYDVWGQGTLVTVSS
Procedure, shortened: as §1

ADI-76358 = molecular target: T25, ADI-76358; assay: SPR Carterra, yeast anti-ID
T25 construct: anti-CD3 antibody made in CHO cells, captured by anti-human Fc
Procedure, shortened: as §1

ADI-26920 IgG = molecular target: T26, ADI-26920 IgG; assay: SPR Carterra avidity, yeast anti-ID, *koff limit
T26 construct: anti-CD3 IgG
T26 sequence (VH, as listed by the source limits assumed, chain 1 of 2): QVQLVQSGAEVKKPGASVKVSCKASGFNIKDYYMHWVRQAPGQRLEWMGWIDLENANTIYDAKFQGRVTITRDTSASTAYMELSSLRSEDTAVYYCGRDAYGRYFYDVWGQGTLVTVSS
Procedure, shortened: as §1

ADI-26924 = molecular target: T27, ADI-26924; assay: SPR Carterra avidity, yeast anti-ID, *koff limit
T27 construct: anti-CD3 antibody made in CHO cells, captured by anti-human Fc
T27 sequence (VH, as listed by the source, chain 1 of 2): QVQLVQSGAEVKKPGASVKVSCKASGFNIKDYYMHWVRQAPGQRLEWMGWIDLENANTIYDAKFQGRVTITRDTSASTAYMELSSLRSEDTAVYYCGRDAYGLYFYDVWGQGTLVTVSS
Procedure, shortened: as §1

ADI-26919 = molecular target: T28, ADI-26919; assay: SPR Carterra avidity, yeast anti-ID, *koff limit
T28 construct: anti-CD3 antibody made in CHO cells, captured by anti-human Fc
Procedure, shortened: as §1

ADI-76357 = molecular target: T29, ADI-76357; assay: SPR Carterra avidity, yeast anti-ID
T29 construct: anti-CD3 antibody made in CHO cells, captured by anti-human Fc
Procedure, shortened: as §1

ADI-74966 = molecular target: T30, ADI-74966; assay: SPR Carterra avidity, yeast anti-ID
T30 construct: pH-dependent anti-CD3 antibody made in CHO cells
Procedure, shortened: as §1

ADI-26913 IgG = molecular target: T31, ADI-26913 IgG; assay: SPR Carterra avidity, yeast anti-ID
T31 construct: anti-CD3 IgG
Procedure, shortened: as §1

ADI-76359 = molecular target: T32, ADI-76359; assay: SPR Carterra avidity, yeast anti-ID
T32 construct: anti-CD3 antibody made in CHO cells, captured by anti-human Fc
T32 sequence (VH, as listed by the source, chain 1 of 2): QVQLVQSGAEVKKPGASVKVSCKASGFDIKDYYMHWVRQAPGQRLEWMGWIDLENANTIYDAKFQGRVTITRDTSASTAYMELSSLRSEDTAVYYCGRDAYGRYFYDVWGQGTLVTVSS
Procedure, shortened: as §1

ADI-26916 IgG = molecular target: T33, ADI-26916 IgG; assay: SPR Carterra avidity, yeast anti-ID
T33 construct: anti-CD3 IgG
T33 sequence (VH, as listed by the source, chain 1 of 2): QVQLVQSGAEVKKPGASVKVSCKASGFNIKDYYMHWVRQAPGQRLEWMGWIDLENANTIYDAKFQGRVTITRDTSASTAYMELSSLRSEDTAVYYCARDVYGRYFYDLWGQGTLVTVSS
Procedure, shortened: as §1

ADI-26943 = molecular target: T34, ADI-26943; assay: SPR Carterra avidity, yeast anti-ID
T34 construct: anti-CD3 antibody made in CHO cells, captured by anti-human Fc
Procedure, shortened: as §1

ADI-48592 = molecular target: T35, ADI-48592; assay: SPR Carterra avidity, yeast anti-ID
T35 construct: pH-dependent anti-CD3 antibody made in CHO cells
Procedure, shortened: as §1

ADI-26906 IgG = molecular target: T36, ADI-26906 IgG; assay: SPR Carterra avidity, yeast anti-ID
T36 construct: anti-CD3 IgG
Procedure, shortened: as §1

ADI-22523 IgG = molecular target: T37, ADI-22523 IgG; assay: BLI; tip anti-ID IgG, solution ADI-22523 IgG
T37 construct: anti-CD3 IgG
T37 sequence (VH, as listed by the source limits assumed, chain 1 of 2): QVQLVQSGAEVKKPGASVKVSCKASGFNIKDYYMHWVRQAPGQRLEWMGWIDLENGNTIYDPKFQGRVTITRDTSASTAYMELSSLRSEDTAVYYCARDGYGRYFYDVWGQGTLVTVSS
T37 sequence (VL, as listed by the source limits assumed, chain 2 of 2): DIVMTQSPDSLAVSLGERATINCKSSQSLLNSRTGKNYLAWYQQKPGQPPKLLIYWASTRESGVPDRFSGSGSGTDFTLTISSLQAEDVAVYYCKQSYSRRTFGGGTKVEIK
Procedure, shortened: (§2)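 Anti-ID IgG was captured on AHC biosensors, equilibrated in assay buffer for 30 min, then baselined for 60 s. KD = koff/kon came from a 1:1 binding fit.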

ADI-22523 Fab = molecular target: T38, ADI-22523 Fab; assay: BLI; tip anti-ID IgG, solution ADI-22523 Fab
T38 construct: anti-CD3 Fab by papain digestion of the IgG
Procedure, shortened: as §2

T1 sequence (VH, as listed by the source limits assumed, chain 1 of 2): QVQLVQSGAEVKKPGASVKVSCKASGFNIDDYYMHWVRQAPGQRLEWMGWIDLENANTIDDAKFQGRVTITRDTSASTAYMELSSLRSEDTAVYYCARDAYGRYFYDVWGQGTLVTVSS

B1: ADI-30254 (antibody, V domains shown)
VH: EVQLLESGGGLVQPGGSLRLSCAASGFTFSSYAMSWVRQAPGKGLEWVSTISGSGGSTYYADSVKGRFTISRDNSKNTLYLQMNSLRAEDTAVYYCARLGGRRGSGSSYYYYYGMDVWGQGTTVTVSS
VL: not shown
notes: anti-ID IgG
ADI-67450
  binding result: no binding (tested: up to 200 nM)
ADI-76361
  binding result: no binding (tested: up to 200 nM)
CTL-62227
  binding result: no binding (tested: up to 200 nM)
CTL-62223
  binding result: no binding (tested: up to 200 nM)
CTL-62228
  binding result: no binding (tested: up to 200 nM)
ADI-76360
  binding result: no binding (tested: up to 200 nM)
ADI-26912
  binding result: no binding (tested: up to 200 nM)
ADI-26909
  binding result: no binding (tested: up to 200 nM)
ADI-74967
  binding result: no binding (tested: up to 200 nM)
ADI-74968
  binding result: no binding (tested: up to 200 nM)
ADI-26921 IgG
  binding result: no binding (tested: up to 200 nM)
CTL-62240
  binding result: no binding (tested: up to 200 nM)
ADI-67445
  binding result: no binding (tested: up to 200 nM)
ADI-70327
  binding result: no binding (tested: up to 200 nM)
ADI-70330
  binding result: no binding (tested: up to 200 nM)
ADI-26915
  binding result: no binding (tested: up to 200 nM)
ADI-76362
  binding result: no binding (tested: up to 200 nM)
ADI-50024
  binding result: no binding (tested: up to 200 nM)
ADI-48650
  binding result: no binding (tested: up to 200 nM)
ADI-48576
  binding result: no binding (tested: up to 200 nM)
ADI-67447
  binding result: no binding (tested: up to 200 nM)
ADI-48587
  binding result: no binding (tested: up to 200 nM)
ADI-74965
  binding result: no binding (tested: up to 200 nM)
ADI-70326
  binding result: no binding (tested: up to 200 nM)
ADI-76358
  binding result: no binding (tested: up to 200 nM)
ADI-26920 IgG
  Kd: 0.021 µM
ADI-26924
  Kd: 0.021 µM
ADI-26919
  Kd: 0.033 µM
ADI-76357
  binding result: binds
ADI-74966
  binding result: binds
ADI-26913 IgG
  binding result: binds
ADI-76359
  Kd: 0.027 µM
ADI-26916 IgG
  Kd: 0.056 µM
ADI-26943
  Kd: 0.027 µM
ADI-48592
  binding result: binds
ADI-26906 IgG
  binding result: binds
ADI-22523 IgG
  Kd: 0.00334 µM
ADI-22523 Fab
  Kd: 0.0503 µM
